# B1: P1-RhoA 23-40 fusion domain (Penetratin-1 fused through a glycine to human RhoA amino acids 23-40) (peptide)
# peptide: RQIKIWFQNRRMKWKKGIVFSKDQFPEVYVPTVFE
# B2: P1-RhoA 75-92 fusion domain (Penetratin-1 fused through a glycine to human RhoA amino acids 75-92) (peptide)
# peptide: RQIKIWFQNRRMKWKKGPDTDVILMCFSIDSPDSL
# Molecular target: Rho-kinase (ROCK), endogenous in Swiss 3T3 mouse fibroblasts (mouse)
# Test: cell-based or functional assay
row,Binder,dose at which inhibition of LPA-induced stress fibers becomes significant [µM]
1,B1,10
2,B2,10
